Assay results: PMC4730846 (Science Advances, 2015)

Biological target: GroEL (Escherichia coli, UniProt P0A6F5 2-548)
Experiment: proteinase K protection assay

GroEL, sequence (P0A6F5 2-548): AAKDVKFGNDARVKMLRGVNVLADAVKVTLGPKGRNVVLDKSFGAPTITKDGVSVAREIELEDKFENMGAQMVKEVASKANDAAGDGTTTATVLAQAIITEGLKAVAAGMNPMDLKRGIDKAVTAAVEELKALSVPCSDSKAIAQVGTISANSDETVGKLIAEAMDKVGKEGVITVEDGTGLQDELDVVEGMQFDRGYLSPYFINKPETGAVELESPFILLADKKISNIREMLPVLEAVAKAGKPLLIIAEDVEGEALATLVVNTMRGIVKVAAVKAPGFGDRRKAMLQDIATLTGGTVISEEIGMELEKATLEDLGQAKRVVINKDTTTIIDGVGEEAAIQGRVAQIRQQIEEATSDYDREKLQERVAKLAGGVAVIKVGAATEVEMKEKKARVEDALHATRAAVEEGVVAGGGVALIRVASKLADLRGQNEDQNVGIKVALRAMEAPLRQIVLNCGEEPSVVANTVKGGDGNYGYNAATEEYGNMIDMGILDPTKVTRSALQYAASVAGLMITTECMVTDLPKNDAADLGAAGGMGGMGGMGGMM

B1: GroES (natural protein)
chain: MNIRPLHDRVIVKRKEVETKSAGGIVLTGSAAAKSTRGEVLAVGNGRILENGEVKPLDVKVGDIVIFNDGYGVKSEKIDNEEVLIMSESDILAIVEA
Does B1 bind?
Result: binds
